We go through four molecules from article PMC9482650, “Quantitative fragmentomics allow affinity mapping of interactomes” (Nature Communications, 2022).

Holding throughout (test): holdup assay
What all share (design): key: below the threshold = too weak to quantify, mostly under pKd 3.1 to 4

The target of assay [1] is T1, APBA1_1, Q02410.
T1 sequence (Q02410 651-752, limits assumed, looked up): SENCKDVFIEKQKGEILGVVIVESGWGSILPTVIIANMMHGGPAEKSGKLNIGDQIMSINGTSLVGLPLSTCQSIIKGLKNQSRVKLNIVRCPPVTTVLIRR

In assay [2] the target is T2, CARD11, Q9BXL7.
T2 sequence (Q9BXL7 662-765, limits assumed, looked up): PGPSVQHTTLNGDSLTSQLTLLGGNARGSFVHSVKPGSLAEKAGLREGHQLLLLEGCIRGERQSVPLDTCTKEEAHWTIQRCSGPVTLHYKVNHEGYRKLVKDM

Assay [3] concerns the target T3, DFNB31_1, Q9P202.
T3 sequence (Q9P202 135-233, limits assumed, looked up): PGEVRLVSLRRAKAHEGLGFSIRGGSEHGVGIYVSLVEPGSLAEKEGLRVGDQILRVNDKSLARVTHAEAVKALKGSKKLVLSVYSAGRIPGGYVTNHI

The target of assay [4] is T4, DFNB31_2, Q9P202.
T4 sequence (Q9P202 274-371, limits assumed, looked up): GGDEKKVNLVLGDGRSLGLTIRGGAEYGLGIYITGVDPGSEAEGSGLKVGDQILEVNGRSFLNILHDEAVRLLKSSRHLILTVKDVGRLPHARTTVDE

The target of assay [5] is T5, DFNB31_3, Q9P202.
T5 sequence (Q9P202 811-907, limits assumed, looked up): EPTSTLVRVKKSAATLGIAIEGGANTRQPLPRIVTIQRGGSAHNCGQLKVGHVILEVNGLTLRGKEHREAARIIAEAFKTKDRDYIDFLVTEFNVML

For assay [6], the target named is DLG1_2, Q12959.
Chain of DLG1_2, Q12959 (Q12959 314-412): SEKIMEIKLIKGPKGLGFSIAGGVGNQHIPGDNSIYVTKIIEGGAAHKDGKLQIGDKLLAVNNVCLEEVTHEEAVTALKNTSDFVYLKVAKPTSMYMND
The target of assay [7] is T6, DVL3, Q92997.
T6 sequence (Q92997 244-331, limits assumed, looked up): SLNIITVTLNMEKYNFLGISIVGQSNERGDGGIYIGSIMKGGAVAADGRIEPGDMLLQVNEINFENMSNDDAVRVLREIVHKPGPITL

The target of assay [8] is T7, FRMPD1, Q5SYB0.
T7 sequence (Q5SYB0 52-145, limits assumed, looked up): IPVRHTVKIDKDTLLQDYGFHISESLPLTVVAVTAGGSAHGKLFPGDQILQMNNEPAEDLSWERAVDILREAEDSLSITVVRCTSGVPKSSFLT

Assay [9] has as its target T8, GRIP1_5, Q9Y3R0.
T8 sequence (Q9Y3R0 568-668, limits assumed, looked up): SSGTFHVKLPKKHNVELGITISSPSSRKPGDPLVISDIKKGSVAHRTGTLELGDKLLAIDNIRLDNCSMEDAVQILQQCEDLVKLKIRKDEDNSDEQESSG

Assay [10] deals with HTRA1, Q92743.
Chain of HTRA1, Q92743 (Q92743 360-477): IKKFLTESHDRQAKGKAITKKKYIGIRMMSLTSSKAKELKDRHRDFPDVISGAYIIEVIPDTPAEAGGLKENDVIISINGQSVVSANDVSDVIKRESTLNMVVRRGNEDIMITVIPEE
Assay [11] has as its target T9, HTRA4, P83105.
T9 sequence (P83105 378-476, limits assumed, looked up): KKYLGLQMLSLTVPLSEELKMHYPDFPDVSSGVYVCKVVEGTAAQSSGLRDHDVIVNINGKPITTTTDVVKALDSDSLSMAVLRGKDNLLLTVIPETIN

Assay [12] deals with LIMK2, P53671.
Chain of LIMK2, P53671 (P53671 143-248): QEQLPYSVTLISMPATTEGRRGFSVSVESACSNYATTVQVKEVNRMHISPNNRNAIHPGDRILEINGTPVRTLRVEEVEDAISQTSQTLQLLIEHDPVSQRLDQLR
Assay [13] concerns the target T10, LIN7C, Q9NUP9.
T10 sequence (Q9NUP9 88-185, limits assumed, looked up): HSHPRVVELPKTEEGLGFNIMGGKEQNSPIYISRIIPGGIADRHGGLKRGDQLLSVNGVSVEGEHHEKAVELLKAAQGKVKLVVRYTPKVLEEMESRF

Assay [14] has as its target MAGI2_2, Q86UL8.
Assay [15] has as its target MAGI2_3, Q86UL8.
Assay [16] addresses NHERF4_4, Q86UT5.
Assay [17] has as its target PDZRN4_1, Q6ZMN7.
In assay [18] the target is T11, RAPGEF6, Q8TEU7.
T11 sequence (Q8TEU7 525-625, limits assumed, looked up): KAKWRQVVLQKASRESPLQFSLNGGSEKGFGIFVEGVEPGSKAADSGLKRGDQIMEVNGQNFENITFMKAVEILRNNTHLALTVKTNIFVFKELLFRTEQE

The target in assay [19] is T12, SHANK1, Q9Y566.
T12 sequence (Q9Y566 658-767, limits assumed, looked up): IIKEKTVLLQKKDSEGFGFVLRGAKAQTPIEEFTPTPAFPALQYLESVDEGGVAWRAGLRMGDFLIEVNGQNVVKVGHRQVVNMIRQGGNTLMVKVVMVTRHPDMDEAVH

For assay [20], the target named is T13, TIAM2, Q8IVF5.
T13 sequence (Q8IVF5 885-986, limits assumed, looked up): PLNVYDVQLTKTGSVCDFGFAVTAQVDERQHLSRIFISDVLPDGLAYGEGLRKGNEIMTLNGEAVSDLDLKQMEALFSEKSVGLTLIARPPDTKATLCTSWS

Assay [21] deals with T14, TJP3_3, O95049.
T14 sequence (O95049 375-456, limits assumed, looked up): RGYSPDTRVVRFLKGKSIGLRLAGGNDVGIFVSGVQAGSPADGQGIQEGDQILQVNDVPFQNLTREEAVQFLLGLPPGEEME

In assay [22] the target is T15, TX1BP3, O14907.
T15 sequence (O14907 10-122, limits assumed, looked up): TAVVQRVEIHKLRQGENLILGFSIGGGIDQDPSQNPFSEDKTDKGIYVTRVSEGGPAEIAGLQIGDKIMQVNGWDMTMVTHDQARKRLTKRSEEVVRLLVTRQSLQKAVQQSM

Where [23] appears, read: plain residues with an end cap or a label only (N-terminal biotin on a linker: ado-ado).
Setting [24] is: plain residues with an end cap or a label only (N-terminal biotin on a linker: (peg)3).

Chain of NHERF4_4, Q86UT5 (Q86UT5 464-550): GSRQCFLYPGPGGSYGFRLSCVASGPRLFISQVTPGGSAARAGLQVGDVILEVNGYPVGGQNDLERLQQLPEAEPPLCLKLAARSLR
Chain of MAGI2_2, Q86UL8 (Q86UL8 410-522): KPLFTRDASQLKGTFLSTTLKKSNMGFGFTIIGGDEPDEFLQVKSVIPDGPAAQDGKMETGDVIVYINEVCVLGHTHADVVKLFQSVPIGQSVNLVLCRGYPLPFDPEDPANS
Chain of MAGI2_3, Q86UL8 (Q86UL8 600-682): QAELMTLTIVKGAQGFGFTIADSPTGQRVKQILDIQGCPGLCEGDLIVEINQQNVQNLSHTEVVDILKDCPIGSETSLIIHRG
Chain of PDZRN4_1, Q6ZMN7 (Q6ZMN7 213-318): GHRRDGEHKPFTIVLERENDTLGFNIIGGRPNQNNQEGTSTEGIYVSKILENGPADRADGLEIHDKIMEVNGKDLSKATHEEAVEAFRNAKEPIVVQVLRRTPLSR

In general, pKd refers to the negative decadic logarithm of the Kd, by convention in mol/L. For DDASLPVSDV [PLEKHA1, Q9HB21], the pKd entry in assay [1] (setting [23]) is “below the threshold”; in assay [2] (setting [23]), “below the threshold”; in [3] (setting [23]), 3.75; in [4] (setting [23]), “below the threshold”; in [5] (setting [23]) it was 4.54; in assay [6] (setting [23]), “below the threshold”. Moreover, the pKd entry in assay [7] (setting [23]), in assay [8] (setting [23]), in assay [9] (setting [23]), in [10] (setting [23]), in [11] (setting [23]) and in assay [12] (setting [23]) was “below the threshold” in each case. Further, the pKd is 4.01 in [13] (setting [23]); “below the threshold” in [14] (setting [23]); “below the threshold” in assay [15] (setting [23]); “below the threshold” in assay [16] (setting [23]); “below the threshold” in assay [17] (setting [23]); “below the threshold” in assay [18] (setting [23]). Also, the pKd result is “below the threshold” in assay [19] (setting [23]), “below the threshold” in [20] (setting [23]), “below the threshold” in assay [21] (setting [23]) and 3.84 in assay [22] (setting [23]).

On to QQSMSSADSTQA [SARS-Cov2-N, P0DTC9], for which the pKd entry in [1] (setting [24]), in [2] (setting [24]), in [3] (setting [24]), in assay [4] (setting [24]), in assay [5] (setting [24]) and in assay [6] (setting [24]) was “below the threshold” each time. In addition, the pKd result in assay [7] (setting [24]), in [8] (setting [24]), in assay [9] (setting [24]), in [10] (setting [24]), in assay [11] (setting [24]) and in assay [12] (setting [24]) was “below the threshold” each time. Besides, the pKd entry in assay [13] (setting [24]), in [14] (setting [24]), in [15] (setting [24]), in assay [16] (setting [24]), in assay [17] (setting [24]) and in assay [18] (setting [24]) was “below the threshold” each time. Also, the pKd entry in assay [19] (setting [24]), in assay [20] (setting [24]), in [21] (setting [24]) and in assay [22] (setting [24]) was “below the threshold” throughout.

Consider ELSATVTTDC [TRIP6, Q15654], for which the pKd result is “below the threshold” in assay [1] (setting [23]); “below the threshold” in [2] (setting [23]); 3.81 in assay [3] (setting [23]); “below the threshold” in assay [4] (setting [23]); 3.62 in [5] (setting [23]); 3.67 in assay [6] (setting [23]). The pKd entry in assay [7] (setting [23]) is “below the threshold”; in [8] (setting [23]) it was “below the threshold”; in assay [9] (setting [23]), “below the threshold”; in assay [10] (setting [23]) it was 3.56; in [11] (setting [23]), “below the threshold”; in [12] (setting [23]), “below the threshold”. In addition, the pKd result in assay [13] (setting [23]) was “below the threshold”; in assay [14] (setting [23]) it was “below the threshold”; in assay [15] (setting [23]) it was 3.56; in assay [16] (setting [23]), “below the threshold”; in [17] (setting [23]), “below the threshold”; in assay [18] (setting [23]) it was “below the threshold”. The pKd is 3.63 in [19] (setting [23]), “below the threshold” in [20] (setting [23]), “below the threshold” in assay [21] (setting [23]) and 3.48 in [22] (setting [23]).

For EDPRVEVTQF [SLC22A9, Q8IVM8], the pKd entry in assay [1] (setting [23]) was “below the threshold”; in [2] (setting [23]), “below the threshold”; in [3] (setting [23]), “below the threshold”; in assay [4] (setting [23]), “below the threshold”; in [5] (setting [23]), 3.84; in [6] (setting [23]), “below the threshold”. Moreover, the pKd result in [7] (setting [23]) was “below the threshold”; in assay [8] (setting [23]), “below the threshold”; in assay [9] (setting [23]) it was “below the threshold”; in assay [10] (setting [23]) it was 3.49; in [11] (setting [23]), “below the threshold”; in [12] (setting [23]), “below the threshold”. Further, the pKd entry in assay [13] (setting [23]), in assay [14] (setting [23]), in [15] (setting [23]), in assay [16] (setting [23]), in assay [17] (setting [23]) and in assay [18] (setting [23]) was “below the threshold” each time. Besides, the pKd in assay [19] (setting [23]) was 5.36; in [20] (setting [23]), 4.15; in assay [21] (setting [23]), “below the threshold”; in assay [22] (setting [23]), “below the threshold”.
